Results on one molecule are retold here after publication PMC8509050, “BZR1 Physically Interacts with SPL9 to Regulate the Vegetative Phase Change and Cell Elongation in Arabidopsis” (International Journal of Molecular Sciences, 2021).

This assay concerns the target T1, glutathione S transferase (GST)-SQUAMOSA PROMOTER BINDING PROTEIN-LIKE9 (SPL9) (Arabidopsis thaliana, UniProt Q700W2 1-375).
T1 construct: SPL9, Arabidopsis thaliana; full-length cDNA without stop codon recombined into pDEST15 (N-GST); also called GST-SPL9; source: Escherichia coli, purified; not shown: GST, N-terminal, kept
T1 sequence (looked up): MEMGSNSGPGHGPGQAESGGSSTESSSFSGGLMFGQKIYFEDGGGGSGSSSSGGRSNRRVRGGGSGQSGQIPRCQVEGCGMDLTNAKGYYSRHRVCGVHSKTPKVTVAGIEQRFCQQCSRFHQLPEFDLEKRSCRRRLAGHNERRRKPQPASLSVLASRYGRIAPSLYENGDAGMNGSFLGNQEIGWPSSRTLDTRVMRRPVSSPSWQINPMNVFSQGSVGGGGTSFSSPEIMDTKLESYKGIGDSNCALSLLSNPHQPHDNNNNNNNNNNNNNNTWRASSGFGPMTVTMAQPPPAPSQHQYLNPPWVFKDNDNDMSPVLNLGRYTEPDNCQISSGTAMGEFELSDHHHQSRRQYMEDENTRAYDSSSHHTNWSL
The assay is described as follows: pull-down; glutathione beads with 1 µg GST-SPL9 incubated with 1 µg MBP or MBP-BZR1; 20 mM Tris-HCl pH 7.5, 100 mM NaCl, 1 mM EDTA, 4 °C, 1 h; washed 10 times with 300 mM NaCl, 0.5% TritonX-100; anti-MBP and anti-GST blots. The following applies: both partners purified.

B1: Maltose binding protein (MBP)-BRASSINAZOLE RESISTANT 1 (BZR1) (natural protein, Arabidopsis thaliana, UniProt Q8S307 1-336, looked up)
chain: MTSDGATSTSAAAAAAAAAAARRKPSWRERENNRRRERRRRAVAAKIYTGLRAQGDYNLPKHCDNNEVLKALCVEAGWVVEEDGTTYRKGCKPLPGEIAGTSSRVTPYSSQNQSPLSSAFQSPIPSYQVSPSSSSFPSPSRGEPNNNMSSTFFPFLRNGGIPSSLPSLRISNSCPVTPPVSSPTSKNPKPLPNWESIAKQSMAIAKQSMASFNYPFYAVSAPASPTHRHQFHTPATIPECDESDSSTVDSGHWISFQKFAQQQPFSASMVPTSPTFNLVKPAPQQMSPNTAAFQEIGQSSEFKFENSQVKPWEGERIHDVGMEDLELTLGNGKARG
notes: BZR1, Arabidopsis thaliana; also called MBP-BZR1; MBP-fused BZR1; source: Escherichia coli, purified
Regarding B1, the binding result is “binds”.
